Experimental data taken from the nanobody polyreactivity screen of Harvey et al. (2022).

assay: yeast display, Sf9 membrane polyspecificity reagent, FACS + sequencing; frameworks hold sequencing errors
Outline: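 In a synthetic yeast display library (Saccharomyces cerevisiae BJ5465), nanobody expression was induced with galactose for 36–48 hours. FACS gates were set low and high (top ~1%) using anti-HA fluorescence for expression and streptavidin fluorescence for binding of the Sf9 membrane reagent. Each polyreactivity label is drawn from the gate of origin.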

| Sequence | polyreactivity (PSR sort gate) |
| --- | --- |
| QVQLVESGGGLVQAGGSLRLSCAASGRTFSNYAMGGYRQAPGKERELVAAISERGGSTYYADSVKGRFTISRDNPKNSVFVQLNSLKPEDTAVYDCNALFRLRAYAEMDYWGQGTQVTVSS | high polyreactivity |
| QVQLVESGGGLVQAGGSLRLSCAASGRTFSNYAMGWYRQAPGKERELVAAIRSGVRTYYADSVKGRFTISRDNAKNTVYLQMNSLKPEDTAVYYCAVATGLLYKSHGYWGQGTQVTVSS | low polyreactivity |
| QVQLVESGGGLVQAGGSLRLSCAASGRTFSNYVMGWSRQAPGKERELVAAITYSGGSTYYADSVKGRFTISRDNAKYTVYLQMNSLKPEDTAVYYCARRWGGSGYYYWGQGTQVTVSS | high polyreactivity |
| QVQLVESGGGLVQAGGSLRLSCAASGRTFSPYAMGWYRQAPGKERELVAAITSRGASTYYADSVKGRFTISRDNAKNTVYLQMNSLKPEDTAVYYWNSGRTYRRLGDYWGQGTQVTVSS | high polyreactivity |
| QVQLVESGGGLVQAGGSLRLSCAASGRTFSQYAMGWYRQAPGKERELVAAISWSGDSTYYADSVKGRFTISRDNAKNTVYLQMNSLKPEDTAVYDCAADRRVETPRYDYWGQGTQVTVSS | low polyreactivity |
| QVQLVESGGGLVQAGGSLRLSCAASGRTFSRNAKGWYRQAPGKERELVAAISWSGGSTYYADSVKGRFTISRDNAKNTVYLQMNSLKPEDTAVYYCAKVLGRTYNYWGQGTQVTVSS | high polyreactivity |
| QVQLVESGGGLVQAGGSLRLSCAASGRTFSRNAMAWYRQAPGKERELVAAISRRGVSTYYADSVKGRFTISRDNAKNTVYLQMNSLKPDDTAVFYCNTRGTYRYDYWGQGTQVTVSS | low polyreactivity |
| QVQLVESGGGLVQAGGSLRLSCAASGRTFSRNAMGWYRQAPGKERELVAAITKGGGSTYYADSVKGRFTISRDNAKNTVYLQMNSLKPEDTAVYYCAAYKPSTRRYDYWGQGTQVTVSS | high polyreactivity |
| QVQLVESGGGLVQAGGSLRLSCAASGRTFSRNAMGWYRQAPGKERELVASISRSGASTYYADSVKGRFTISRDNAKNTVYLQMNSLKPEDTAVYYCNADVYSTYYNYNYWVQGTQVTVSS | high polyreactivity |
| QVQLVESGGGLVQAGGSLRLSCAASGRTFSRNAMGWYRQAPGNERELLAASSWSGGRTYYADSVKGRFTISRDNAKNTFYLQMNSLKPEDTAVYYCAAGGGTGGSRYDSWGQGTQVTVSS | high polyreactivity |
| QVQLVESGGGLVQAGGSLRLSCAASGRTFSRYAIGWYRQAPGKERDLVAAITRTGGSTYYADSVKGRFTISRDNAKNTVYLQMNSLKPEDTAVYYCAAAYPGVWYDYNYWGQGTQVTVSS | high polyreactivity |
| QVQLVESGGGLVQAGGSLRLSCAASGRTFSRYAMGWYRQAPGKERELVAAIRGNSGNTYYADSVKGRFTISRDNAKNTVYLQMNSLKPEDTAVYYCAKPFNIWGQGTQVTVSS | high polyreactivity |
| QVQLVESGGGLVQAGGSLRLSCAASGRTFSRYTMGWYRQAPGKERELVAAISVNGGTTHYADSVKGRFTISRDNAKNTVYLQMNSLKPEDTAVYYCNARRRVGKYKYDYWGQGTQVTVSS | high polyreactivity |
| QVQLVESGGGLVQAGGSLRLSCAASGRTFSSNAKGWYRQAPGKERELVASISFRGGRTYYADSVKGRFTISRDNAKNTVYLQMNSLKPEDTAVYYCVSGTIRTGYGYWGQGTQVTVSS | high polyreactivity |
| QVQLVESGGGLVQAGGSLRLSCAASGRTFSSYAMGWYRQAPGKERELVAAITRTGGRTYYAYSVKGRFTISRDNAKNSVYLQMNSLKPEDTAVYFCAALYIYRTFAALSRYDYWGQGTQVTVSS | high polyreactivity |
| QVQLVESGGGLVQAGGSLRLSCAASGRTFSSYTMGWYRQAPGKERELVASITNNGGSTYYADSVKGRFTISRDNAKNTVYLQMNSLKPEDTAVYYCAVDSRGKLGISGEYGYWGQGTQVTVSS | low polyreactivity |
| QVQLVESGGGLVQAGGSLRLSCAASGRTFSVNAMGWYRKAPGKERELVAAISWSTGSTYYADSVKGRFTISRDNAKNTVSLQMNSLKPEDTAVYYCAKLYEYRRSRYRTYGYWGQGTQVTVSS | high polyreactivity |
| QVQLVESGGGLVQAGGSLRLSCAASGRTFSVNAMGWYRPAPGKERELVAAISSGGGTNYADSVKGRFTISRDNAKNTVYLQMNSLKPEDTAVYYCAARTFGYPSHRQEMEYWGQGTQVTVSS | low polyreactivity |
| QVQLVESGGGLVQAGGSLRLSCAASGRTFSVNAMGWYRQAPGKERELVAAITSGASTNYADSVKGRFTISRDNAKNTVYLQMNSLKPEDTAVYYCAADYLYHQTSRGKYYSWGQGTQVTVSS | low polyreactivity |
| QVQLVESGGGLVQAGGSLRLSCAASGRTFSVNAMGWYRQAPGKEREMVAAITSGASTNYADSVKGRFTISRDNAKNTVYLQMNSLKPEDTAVYYCAADATYGHVPAEYDYWGQGTQVTVSS | low polyreactivity |
| QVQLVESGGGLVQAGGSLRLSCAASGRTFSVNAMGWYRQAPGNERELVAARRTGDSTNYADSVKGRFTFSRDNAKYTVYLPMNSLKPEDTSVDYCAADVWGSSAQRGWRKYYYWGQGTQVTVSS | high polyreactivity |
| QVQLVESGGGLVQAGGSLRLSCAASGRTFSVYAMVWYRQAPGKERELVADITRRGGSTTYADSVKGRFTISRDNAKNTVDLQMNSLKPEDTAVYYFNADGKAGGDYDYWGQGTQVTVSS | low polyreactivity |

| Sequence | polyreactivity (PSR sort gate) |
| --- | --- |
| QVQLVESGGGLVQAGGSLRLSCAASGRTFSVYTMGWYRQAPGKERELVASINWSGGRTYYADSVKGRFTISRDNAKNSVYLQMNSLKPEDTAVYYCAATGWRTLYDYWGQGTQVTVSS | high polyreactivity |
| QVQLVESGGGLVQAGGSLRLSCAASGRTFSYNAMGWYRQAPGKERELVAGISSRGGSTYYADSVKGRFTISRDNAKNTVYLQMNSLKPEDTAVYYCNALGRGKDSYSGVDYWGQGTQVTVSS | high polyreactivity |
| QVQLVESGGGLVQAGGSLRLSCAASGRTFSYNTMGCYRQAPGKERELVARITWGGGSTNYADSVKGRFTISRDNAKNTVYLQMNSLKPEDTAVYYCAREYSSVYWVRHLFYYWGQGTQVTVSS | low polyreactivity |
| QVQLVESGGGLVQAGGSLRLSCAASGRTFSYNTMGWYRQAPGKVSELVAAISTGVSTYYADSVKGRFTISRDNAKNTVYLQMNSLKPEDTEVYYCARGGRPRWYPPHNYWGQGTQLTVSS | low polyreactivity |
| QVQLVESGGGLVQAGGSLRLSCAASGRTFSYYAMGCYRQAPGKERELVAAISQRGGSTYYADSVKGRFTISRDNAKNTVYLQMNSLKPEDTAVYYCAVLVSRYRYRVLDDYWGQGTQVTVSS | high polyreactivity |
| QVQLVESGGGLVQAGGSLRLSCAASGRTFSYYAMGWYRQAPGKERELVAAISSGGSTNYADSVKGRFTISRDNAKNTVYLQMNSLKPEDTAVYYCATSSIWGSGRVRWVTYYYWGQGTQVTVSS | low polyreactivity |
| QVQLVESGGGLVQAGGSLRLSCAASGRTFSYYAMGWYRQAPGKERELVAGISWRGTSTYADSVKGRFTISRDNAKNTVYLQMNSLKPEDTAVYYWNAEVTGHYSYHKFDYWGQGTQVTVSS | low polyreactivity |
| QVQLVESGGGLVQAGGSLRLSCAASGRTFSYYAMGWYRQAPGKERELVAVITSSGGSTSYADSVKGRFTISRDNAKNTVYLQMNSLKPEDTAVYYCAADPLAVSWAYYLFGVDYWGQGTQVTVSS | high polyreactivity |
| QVQLVESGGGLVQAGGSLRLSCAASGRTFSYYGMGWYRQAPGKERELVAAITNSVGRTYYADSVKGRFTISRDNEKNTVYLHMNSLKPEDTAVYYCKKYGRYYYWGQGTQVTVSS | low polyreactivity |
| QVQLVESGGGLVQAGGSLRLSCAASGRTFTAYAMGWYRQAPGKERELVAAISVGGGSTYYADSVKGRFTISRDNAKNTVYLQMNSLKPEDTAVYYCAADRSYYLDGYDYWGQGTQVTVSS | low polyreactivity |
| QVQLVESGGGLVQAGGSLRLSCAASGRTFTFYTMGWYRQAPGKERELVAAITRSGGGTYYADSVKGRFTISRDNAKNTVYLQMNSLKPEDTAVYYCAAYNRNAFHWGQGTQVTVSS | high polyreactivity |
| QVQLVESGGGLVQAGGSLRLSCAASGRTFTGNALGWYRQAPGKERELVAAISQRGGRTNYADSVKGRFTISRDNAKNTVYLQMNSLKPEDTAVYYCAADLGYYYFFGSNYAYDYWGQGTQVNVSS | low polyreactivity |
| QVQLVESGGGLVQAGGSLRLSCAASGRTFTGYAMGWYRQAPGKEREFVAAITQRGGSTYYADSVKGRFTISRDTAKNTVYLQMNSLKPEDTAVYYCAARRRYKMDYWGQGTQVTVSS | high polyreactivity |
| QVQLVESGGGLVQAGGSLRLSCAASGRTFTHYDMGWYRQAPGKERELVAAISSGCGTYYADSVKGRFTISRDNAKNTVYLQMNSLKPEDTAVYYCNADYTNYHDPFRTYGYWGQGTQVTVSS | low polyreactivity |
| QVQLVESGGGLVQAGGSLRLSCAASGRTFTINGMGWYRQAPGKERELVAGINWRDGRTYYADSVKGRFTISRDNAKNTVYLQMNSLKPEDTAVYYCNVEVAESFDYWVQGTQVTVSS | low polyreactivity |
| QVQLVESGGGLVQAGGSLRLSCAASGRTFTIYAMGWYRQAPGKEREFVASITGSDGSTYYADSVKGRFTISRDNAKNTVYLQMNSLKPEDTAVYYCAAKRYVYPSYRFDYWGQGTQVTVSS | low polyreactivity |
| QVQLVESGGGLVQAGGSLRLSCAASGRTFTIYTMGWYRQAPGKERELVAAISRGGRTNYADSVKGRFTISRDNAKNTVYLQMNSLKPEDTAVYYCNADGSRYYTAYRLRLPYDYWGQGTQVTVSS | high polyreactivity |
| QVQLVESGGGLVQAGGSLRLSCAASGRTFTLYAMGWYRQAPGKERELVASITTGGRTYYADSVKGRFTISRDNAKNTVYLKMNSLKPEDTAVYYCNADRVYAWYRTYEYWGQGTEVTVSS | high polyreactivity |
| QVQLVESGGGLVQAGGSLRLSCAASGRTFTPYAMGWYRQAPGKERELVAAINSDGSTNYADSVKGRFTISRDNAKNTVYLQMNSLKPEDTAVYYCAAGYSLEGDYWGQGTQVTVSS | low polyreactivity |
| QVQLVESGGGLVQAGGSLRLSCAASGRTFTQYAMGWYRQAPGKERELVARISYSGGTTYYADSVKGRFTISRDNAKNTVYLQMNSLKPEDTAVYYCARDYYGSVRFDHWGQGTQVTVSS | high polyreactivity |
| QVQLVESGGGLVQAGGSLRLSCAASGRTFTQYAMGWYRQAPGKEREMVAAISWRGGSTYYADSVKGRFTISRDNAKNTVYVQMNSLKPEDTAVSYCAKRYFRGYPLYDYWGQGTQVTVSS | high polyreactivity |
